Changes are numbered by the printed parent chain.
T1: GCN4-SUN2 C705A (His6-GCN4 fusion of SUN2 522–717 C705A) (human, UniProt Q9UH99 522-717, C705A)
T1 construct: SUN2, human, SUN domain, residues 522-717, C705A; The GCN4 tag is a trimerising tag (Sosa et al., 2012); not shown: His6, N-terminal, kept; GCN4, N-terminal, kept
T1 sequence (looked up): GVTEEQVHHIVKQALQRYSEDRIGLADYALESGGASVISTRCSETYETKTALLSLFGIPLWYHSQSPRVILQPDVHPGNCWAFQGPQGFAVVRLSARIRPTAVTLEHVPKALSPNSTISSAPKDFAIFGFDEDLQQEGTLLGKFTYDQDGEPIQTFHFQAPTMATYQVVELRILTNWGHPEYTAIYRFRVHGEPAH

B1: KASH5 (construct not told; unpublished findings) (natural protein, human, UniProt Q8N6L0 1-562, looked up)
chain: MDLPEGPVGGPTAEMYLRERPEEARLGMPVSLEEQILNSTFEACDPQRTGTVAVAQVLAYLEAVTGQGPQDARLQTLANSLDPNGEGPKATVDLDTFLVVMRDWIAACQLHGGLELEEETAFQGALTSRQLPSGCPEAEEPANLESFGGEDPRPELQATADLLSSLEDLELSNRRLVGENAKLQRSMETAEEGSARLGEEILALRKQLHSTQQALQFAKAMDEELEDLKTLARSLEEQNRSLLAQARQAEKEQQHLVAEMETLQEENGKLLAERDGVKKRSQELAMEKDTLKRQLFECEHLICQRDTILSERTRDVESLAQTLEEYRVTTQELRLEISRLEEQLSQTYEGPDELPEGAQLRRVGWTELLPPSLGLEIEAIRQKQEVATADLSNPLCGVWQWEEVIHETSEETEFPSEAPAGGQRNFQGEPAHPEEGRKEPSMWLTRREEEEDAESQVTADLPVPLGAPRPGDIPENPPERPARRELQQALVPVMKKLVPVRRRAWGQLCLPPQRLRVTRHPLIPAPVLGLLLLLLLSVLLLGPSPPPTWPHLQLCYLQPPPV
notes: KASH5, human; Told only as 'KASH5 is dimeric (Gurusaran and Davies, unpublished findings)'
B2: MBP-KASH1 (His6-MBP fusion of the KASH domain of human Nesprin-1, residues 8769–8797) (domain or fragment)
chain: not shown
notes: Nesprin-1, human, C-terminal KASH domain, residues 8769-8797
B3: GCN4-SUN2 (His6-GCN4 fusion of the SUN domain of human SUN2, residues 522–717), wild-type (domain or fragment, UniProt Q9UH99 522-717, looked up)
chain: T1 sequence (looked up) with A184C
notes: SUN2, human, SUN domain, residues 522-717; The GCN4 tag is a trimerising tag (Sosa et al., 2012); not shown: His6, N-terminal, kept; GCN4, N-terminal, kept
B4: MBP-KASH4 (His6-MBP fusion of the KASH domain of human Nesprin-4, residues 376–404) (domain or fragment, UniProt Q8N205 376-404, looked up)
chain: ASGGPCCSHARIPRTPYLVLSYVNGLPPV
notes: Nesprin-4, human, C-terminal KASH domain, residues 376-404
B5: MBP-KASH5 (His6-MBP fusion of the KASH domain of human KASH5, residues 542–562) (domain or fragment, UniProt Q8N6L0 542-562, looked up)
chain: GPSPPPTWPHLQLCYLQPPPV
notes: KASH5, human, C-terminal KASH domain, residues 542-562
B6: GCN4-SUN1 (His6-GCN4 fusion of the SUN domain of human SUN1, residues 616–812), wild-type (domain or fragment)
chain: GITEAQARAIVNSALKLYSQDKTGMVDFALESGGGSILSTRCSETYETKTALMSLFGIPLWYFSQSPRVVIQPDIYPGNCWAFKGSQGYLVVRLSMMIHPAAFTLEHIPKTLSPTGNISSAPKDFAVYGLENEYQEEGQLLGQFTYDQDGESLQMFQALKRPDDTAFQIVELRIFSNWGHPEYTCLYRFRVHGEPVK

Key:
[1] = molecular target: the molecule itself; assay: not stated; unpublished findings (Gurusaran and Davies)
[2] = molecular target: T1, GCN4-SUN2 C705A (His6-GCN4 fusion of …); assay: SEC-MALS; co-expressed and co-purified samples at >1 mg/ml on Superdex 200 Increase 10/300 GL in 20 mM Tris pH 8.0, 150 mM KCl, 2 mM DTT; conditions: both partners purified
[3] = molecular target: B6; assay: as above; conditions: both partners purified
[4] = molecular target: the molecule itself; assay: as above
[5] = molecular target: B3; assay: as above; conditions: both partners purified

Row | stoichiometry N [3] | Binder | stoichiometry N [4] | also measured
1 |  | B1 |  | stoichiometry N [1]: 2
2 | 1 binder:target ratio (6:6) | B2 |  | stoichiometry N [2]: 1 binder:target ratio (6:6)
3 |  | B3 | 3 | 
4 | 1 binder:target ratio (6:6) | B4 |  | stoichiometry N [5]: 1 binder:target ratio (6:6)
5 | 1 binder:target ratio (6:6) | B5 |  | 
6 |  | B6 | 3 | 

Reference: article PMC7800377, “A molecular mechanism for LINC complex branching by structurally diverse SUN-KASH 6:6 assemblies” (eLife, 2021)
